Legend:
[1] = target: unmodified Spt5 CTD peptide (S. pombe); experiment: pull-down; biotinylated peptides (50 µg) on streptavidin Dynabeads incubated with 50-200 ng TAP-purified factor in 200 µl (20 mM Hepes pH 7.6, 37.5 mM KOAc, 2.5 mM MgOAc, 5% glycerol, 0.075% Triton X-100), 4°C, 1 h; washes with 250 mM KOAc; immunoblot with a TAP antibody; percent bound by ImageJ
[2] = target: Thr1-P form of the Spt5 CTD peptide (S. pombe); experiment: as above

percent bound [1] | percent bound [2] | Substance
5% | – | PAF complex purified from the tpr1-TAP strain (from UniProt O42668 1-1039; Q9UUE7 1-371)
10% | 35% | Prf1-CBP (TAP-purified, native Prf1) (natural protein)

— publication PMC3873232
